Results reported in publication PMC3906829.

Target: membrane-embedded MraY from Aquifex aeolicus used for structure-guided disulfide cross-bridge experiments (Aquifex aeolicus) (UniProt O66465)
Test: cross-linking

stoichiometry N: 2
Substance: membrane-embedded MraY from Aquifex aeolicus used for structure-guided disulfide cross-bridge experiments (from UniProt O66465 1-359) (enzyme)
